Literature values as cited in paper PMC4005919.

Target: BID BH3 (Homo sapiens) (UniProt P55957)
Sequence (P55957 80-99): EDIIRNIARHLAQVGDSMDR

Sequence of BAK (Q16611 2-211): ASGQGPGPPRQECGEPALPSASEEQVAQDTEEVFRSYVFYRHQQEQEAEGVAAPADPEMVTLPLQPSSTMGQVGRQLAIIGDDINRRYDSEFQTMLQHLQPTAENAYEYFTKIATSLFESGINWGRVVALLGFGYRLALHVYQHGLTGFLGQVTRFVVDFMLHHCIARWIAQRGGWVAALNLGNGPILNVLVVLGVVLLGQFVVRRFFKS

Kd: 10 µM
Substance: BAK (from UniProt Q16611)
